Reference: the supplement of paper PMC6757056
± gives the standard deviation of the averaged measurements.

B1: library; a variant is named by its letters at N, in order (parent)
chain: GCUGUCACCGAGAAACUGUGAAGUAUAUCUUAAACCUGGGCACUUAAAAGAUAUAUGGAGUUAGUAGUGCAACCUGCUCGGUCUGAUGAGUCCNNNNNNGGACGAAACAGC

Columns and labels:
cyclic di-GMP [1] = variants of: B1; assay: normalized RNA/DNA level without ligand (relative to sTRSVctl = 100) (log10 (% of sTRSVctl)); HEK293T; ligand: cyclic di-GMP (c-di-GMP-II aptamer); higher = less ribozyme self-cleavage, higher mRNA level; conditions: reporter: mCherry (pCS4076), ligand present: no
Method in brief: (§1)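 For each 6-well well, 4 µg of library plasmid encoding mCherry-linked ribozyme switches, or eGFP-linked ones in some ligand experiments, was transfected into HEK293T. Any ligand was added 1 h before transfection, and RNA was extracted with EDTA 72 h after it, then reverse-transcribed, amplified, barcoded and sequenced. RNA level was obtained by dividing RNA reads by DNA reads, normalizing to a spiked-in non-cleaving sequence or to the top sequences, then scaling and log-transforming. The top set was 25 sequences, scaling was ×100 with log10, and ≥100 DNA reads were required.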

cyclic di-GMP [2] = variants of: B1; assay: normalized RNA/DNA level with ligand (relative to sTRSVctl = 100) (log10 (% of sTRSVctl)); HEK293T; ligand: cyclic di-GMP (c-di-GMP-II aptamer); ligand concentration (+) RNA-Seq: 1 mM; higher = less ribozyme self-cleavage, higher mRNA level; conditions: reporter: mCherry (pCS4076), ligand present: yes
Method in brief: as §1

Variant	normalized RNA/DNA level without ligand (log10) (cyclic di-GMP [1])	normalized RNA/DNA level with ligand (log10) (cyclic di-GMP [2])
AUGGGG	1.56 ± 0.12	1.68 ± 0.08
CUUGGC	1.79 ± 0.034	1.92 ± 0.085
AUUAGA	1.52 ± 0.12	1.69 ± 0.058
AUUAGU	1.686 ± 0.01	1.83 ± 0.11
AUUAGG	1.56 ± 0.065	1.72 ± 0.17
CUGUAC	1.67 ± 0.033	1.82 ± 0.096
CUGUAG	1.66 ± 0.051	1.84 ± 0.1
CUGUAA	1.26 ± 0.086	1.51 ± 0.1
GUGUAC	1.58 ± 0.025	1.78 ± 0.089
GUGUAU	1.6 ± 0.018	1.78 ± 0.14
GUGUAA	1.48 ± 0.027	1.67 ± 0.1
GUGUAG	1.7031 ± 0.0011	1.85 ± 0.095
UUGCUG	1.7171 ± 3.9e-05	1.84 ± 0.14
UUGCUC	1.788 ± 0.015	1.86 ± 0.071
UUGCUU	1.727 ± 0.0027	1.88 ± 0.12
GUUGCA	1.81 ± 0.038	1.87 ± 0.1
GUUGCC	1.76 ± 0.013	1.87 ± 0.1
GUUGCU	1.7 ± 0.039	1.84 ± 0.1
CUGUGG	1.7 ± 0.048	1.85 ± 0.11
CUGUGA	1.54 ± 0.075	1.77 ± 0.081
CUGUGU	1.75 ± 0.027	1.86 ± 0.11
CUGUGC	1.739 ± 0.013	1.85 ± 0.095
AUUCUU	1.72 ± 0.052	1.88 ± 0.11
AUUCUG	1.68 ± 0.071	1.81 ± 0.11

Variant	normalized RNA/DNA level without ligand (log10) (cyclic di-GMP [1])	normalized RNA/DNA level with ligand (log10) (cyclic di-GMP [2])
AUUCUC	1.806 ± 0.0079	1.89 ± 0.1
AUUCUA	1.595 ± 0.0027	1.78 ± 0.13
GUGGCU	1.76 ± 0.029	1.86 ± 0.074
GUGGCA	1.81 ± 0.027	1.91 ± 0.097
GUGGCG	1.85 ± 0.022	1.87 ± 0.094
GUGGAG	1.61 ± 0.059	1.71 ± 0.092
UUGGGA	1.57 ± 0.1	1.72 ± 0.1
UUGGGG	1.61 ± 0.057	1.78 ± 0.094
UUGGGU	1.68 ± 0.024	1.84 ± 0.088
UUGGGC	1.72 ± 0.023	1.84 ± 0.091
AUGCUU	1.61 ± 0.025	1.8 ± 0.12
AUGCUG	1.68 ± 0.028	1.83 ± 0.074
GUUGGA	1.56 ± 0.097	1.72 ± 0.077
GUUGGC	1.61 ± 0.022	1.79 ± 0.09
CUGGAG	1.604 ± 0.006	1.77 ± 0.099
CUGGAU	1.53 ± 0.094	1.73 ± 0.053
CUGGAC	1.63 ± 0.018	1.77 ± 0.096
CUUAUU	1.54 ± 0.023	1.71 ± 0.065
CUUAUG	1.67 ± 0.022	1.81 ± 0.1
CUUAUC	1.73 ± 0.088	1.87 ± 0.14
CUUGCG	1.78 ± 0.02	1.86 ± 0.12
CUUGCU	1.76 ± 0.021	1.86 ± 0.12
CUUGCA	1.66 ± 0.018	1.77 ± 0.1
CUUGCC	1.82 ± 0.019	1.9 ± 0.077

Variant	normalized RNA/DNA level without ligand (log10) (cyclic di-GMP [1])	normalized RNA/DNA level with ligand (log10) (cyclic di-GMP [2])
UUUCUG	1.795 ± 0.012	1.92 ± 0.091
UUUCUC	1.8 ± 0.024	1.92 ± 0.085
CUGUCU	1.57 ± 0.086	1.76 ± 0.067
CUGUCC	1.786 ± 0.0046	1.92 ± 0.12
CUGUCG	1.73 ± 0.047	1.84 ± 0.14
GUUCAG	1.77 ± 0.023	1.86 ± 0.12
GUUCAA	1.62 ± 0.059	1.81 ± 0.083
GUUCAC	1.737 ± 0.013	1.87 ± 0.09
AUUCAA	1.58 ± 0.032	1.77 ± 0.15
AUUCAU	1.74 ± 0.045	1.84 ± 0.11
AUUCAC	1.76 ± 0.021	1.88 ± 0.09
CUUCGG	1.82 ± 0.028	1.886 ± 0.0058
CUUCGC	1.79 ± 0.024	1.83 ± 0.056
CUUCGU	1.8 ± 0.04	1.87 ± 0.094
CUUCGA	1.71 ± 0.026	1.84 ± 0.065
AUUACC	1.73 ± 0.057	1.88 ± 0.052
AUUACA	1.63 ± 0.027	1.79 ± 0.071
AUUACU	1.73 ± 0.029	1.86 ± 0.081
CUUCAC	1.734 ± 0.0076	1.86 ± 0.088
CUUCAG	1.732 ± 0.0075	1.81 ± 0.067
GUUAUU	1.679 ± 0.0041	1.83 ± 0.11
GUUAUC	1.51 ± 0.045	1.74 ± 0.067
UUUACG	1.83 ± 0.057	1.91 ± 0.12
UUUACC	1.75 ± 0.028	1.87 ± 0.058

Variant	normalized RNA/DNA level without ligand (log10) (cyclic di-GMP [1])	normalized RNA/DNA level with ligand (log10) (cyclic di-GMP [2])
UUUACA	1.73 ± 0.037	1.85 ± 0.1
UUUACU	1.75 ± 0.031	1.88 ± 0.092
GUUACG	1.65 ± 0.075	1.81 ± 0.083
GUUACA	1.661 ± 0.0095	1.8 ± 0.11
GUUACC	1.79 ± 0.059	1.9 ± 0.1
UUUCGC	1.789 ± 0.0088	1.89 ± 0.14
UUUCGU	1.72 ± 0.025	1.86 ± 0.083
UUUCGG	1.8 ± 0.066	1.93 ± 0.12
CUUAGA	1.61 ± 0.024	1.79 ± 0.12
CUUAGG	1.79 ± 0.072	1.89 ± 0.13
CUUAGU	1.78 ± 0.051	1.88 ± 0.058
GUGGUU	1.617 ± 0.0057	1.78 ± 0.13
GUUCCC	1.8 ± 0.021	1.9 ± 0.13
GUUCCG	1.82 ± 0.039	1.94 ± 0.1
GUUCCU	1.76 ± 0.079	1.89 ± 0.13
GUUCUU	1.7 ± 0.084	1.84 ± 0.12
GUUCUC	1.75 ± 0.035	1.88 ± 0.068
CUGGCA	1.638 ± 0.015	1.73 ± 0.14
CUGGCU	1.771 ± 0.0077	1.87 ± 0.067
CUGGCG	1.74 ± 0.057	1.85 ± 0.092
CUGGCC	1.8041 ± 0.00089	1.87 ± 0.096
CUGCUG	1.63 ± 0.055	1.79 ± 0.11
CUGCUU	1.6 ± 0.06	1.76 ± 0.09
AUGUUG	1.56 ± 0.036	1.72 ± 0.14

Variant	normalized RNA/DNA level without ligand (log10) (cyclic di-GMP [1])	normalized RNA/DNA level with ligand (log10) (cyclic di-GMP [2])
AUGUUC	1.681 ± 0.01	1.84 ± 0.1
AUGUUU	1.56 ± 0.034	1.77 ± 0.15
UUUGCG	1.78 ± 0.066	1.88 ± 0.12
UUUGCC	1.838 ± 0.011	1.89 ± 0.079
UUUGCU	1.76 ± 0.057	1.88 ± 0.14
UUUGCA	1.78 ± 0.018	1.85 ± 0.1
UUGUGG	1.795 ± 0.0063	1.9 ± 0.1
UUGUGA	1.599 ± 0.011	1.79 ± 0.11
UUGUGC	1.75 ± 0.027	1.86 ± 0.052
UUGUGU	1.716 ± 0.015	1.88 ± 0.11
UUGGUU	1.7 ± 0.027	1.84 ± 0.097
UUGGUC	1.77 ± 0.0052	1.86 ± 0.11
UUGGUG	1.6 ± 0.1	1.78 ± 0.11
UUGGUA	1.45 ± 0.084	1.73 ± 0.11
UUUAAA	1.654 ± 0.0051	1.79 ± 0.081
UUUAAG	1.72 ± 0.027	1.85 ± 0.11
AUGUCU	1.7 ± 0.028	1.84 ± 0.046
AUGUCG	1.64 ± 0.035	1.76 ± 0.087
AUGUCA	1.59 ± 0.072	1.78 ± 0.066
AUGUCC	1.74 ± 0.02	1.86 ± 0.15
